B1: Cross308×Trop2 (bispecific antibody)
scFv: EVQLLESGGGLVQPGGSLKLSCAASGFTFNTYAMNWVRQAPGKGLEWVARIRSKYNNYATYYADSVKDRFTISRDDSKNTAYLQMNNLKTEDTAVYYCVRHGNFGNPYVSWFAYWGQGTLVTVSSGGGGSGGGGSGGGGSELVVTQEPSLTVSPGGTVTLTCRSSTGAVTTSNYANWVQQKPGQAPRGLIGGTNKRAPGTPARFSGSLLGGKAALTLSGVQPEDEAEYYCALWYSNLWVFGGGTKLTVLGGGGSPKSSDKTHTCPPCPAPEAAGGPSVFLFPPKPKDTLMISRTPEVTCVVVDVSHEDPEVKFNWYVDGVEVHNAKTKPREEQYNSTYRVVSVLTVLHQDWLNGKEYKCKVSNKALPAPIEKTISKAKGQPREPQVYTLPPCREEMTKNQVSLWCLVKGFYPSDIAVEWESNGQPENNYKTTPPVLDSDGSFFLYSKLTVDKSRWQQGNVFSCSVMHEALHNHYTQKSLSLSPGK
heavy: QVQLQQSGSELKKPGASVKVSCKASGYTFTNYGMNWVKQAPGQGLKWMGWINTYTGEPTYTDDFKGRFAFSLDTSVSTAYLQISSLKADDTAVYFCARGGFGSSYWYFDVWGQGSLVTVSSASTKGPSVFPLAPSSKSTSGGTAALGCLVKDYFPEPVTVSWNSGALTSGVHTFPAVLQSSGLYSLSSVVTVPSSSLGTQTYICNVNHKPSNTKVDKKVEPKSSDKTHTCPPCPAPEAAGGPSVFLFPPKPKDTLMISRTPEVTCVVVDVSHEDPEVKFNWYVDGVEVHNAKTKPREEQYNSTYRVVSVLTVLHQDWLNGKEYKCKVSNKALPAPIEKTISKAKGQPREPQVCTLPPSREEMTKNQVSLSCAVKGFYPSDIAVEWESNGQPENNYKTTPPVLDSDGSFFLVSKLTVDKSRWQQGNVFSCSVMHEALHNHYTQKSLSLSPGK
light: DIQLTQSPSSLSASVGDRVSITCKASQDVSIAVAWYQQKPGKAPKLLIYSASYRYTGVPDRFSGSGSGTDFTLTISSLQPEDFAVYYCQQHYITPLTFGAGTKVEIKRTVAAPSVFIFPPSDEQLKSGTASVVCLLNNFYPREAKVQWKVDNALQSGNSQESVTEQDSKDSTYSLSSTLTLSKADYEKHKVYACEVTHQGLSSPVTKSFNRGEC
B2: Cross310×Trop2 (bispecific antibody)
scFv: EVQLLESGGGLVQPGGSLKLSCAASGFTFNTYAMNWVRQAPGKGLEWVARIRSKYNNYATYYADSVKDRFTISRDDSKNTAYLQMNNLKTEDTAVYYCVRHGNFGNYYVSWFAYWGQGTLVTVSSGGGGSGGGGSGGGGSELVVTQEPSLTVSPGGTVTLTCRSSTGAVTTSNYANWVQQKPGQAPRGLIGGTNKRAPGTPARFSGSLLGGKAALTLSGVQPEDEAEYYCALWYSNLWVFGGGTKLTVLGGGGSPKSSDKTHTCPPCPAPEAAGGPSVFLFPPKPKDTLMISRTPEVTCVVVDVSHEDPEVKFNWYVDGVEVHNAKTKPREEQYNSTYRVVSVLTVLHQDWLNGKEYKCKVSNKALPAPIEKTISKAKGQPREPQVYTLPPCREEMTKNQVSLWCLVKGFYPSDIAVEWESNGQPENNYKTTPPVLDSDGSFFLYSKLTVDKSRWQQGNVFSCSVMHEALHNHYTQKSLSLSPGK
heavy: B1 heavy
light: B1 light
B3: Cross313×Trop2 (bispecific antibody)
scFv: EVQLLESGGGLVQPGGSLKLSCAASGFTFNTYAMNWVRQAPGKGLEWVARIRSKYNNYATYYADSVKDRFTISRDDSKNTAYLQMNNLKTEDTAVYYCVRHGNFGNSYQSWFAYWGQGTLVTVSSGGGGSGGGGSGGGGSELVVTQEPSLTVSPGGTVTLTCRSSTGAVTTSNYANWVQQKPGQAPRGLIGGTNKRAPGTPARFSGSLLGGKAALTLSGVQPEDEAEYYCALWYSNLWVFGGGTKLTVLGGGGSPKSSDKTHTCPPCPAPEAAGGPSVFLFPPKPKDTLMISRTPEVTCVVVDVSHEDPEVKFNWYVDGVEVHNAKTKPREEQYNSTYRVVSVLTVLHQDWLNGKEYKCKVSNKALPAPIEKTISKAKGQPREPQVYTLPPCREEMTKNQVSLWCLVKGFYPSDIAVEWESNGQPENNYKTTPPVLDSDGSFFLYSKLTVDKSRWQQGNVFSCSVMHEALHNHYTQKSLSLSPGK
heavy: B1 heavy
light: B1 light
B4: Cross312×Trop2 (bispecific antibody)
scFv: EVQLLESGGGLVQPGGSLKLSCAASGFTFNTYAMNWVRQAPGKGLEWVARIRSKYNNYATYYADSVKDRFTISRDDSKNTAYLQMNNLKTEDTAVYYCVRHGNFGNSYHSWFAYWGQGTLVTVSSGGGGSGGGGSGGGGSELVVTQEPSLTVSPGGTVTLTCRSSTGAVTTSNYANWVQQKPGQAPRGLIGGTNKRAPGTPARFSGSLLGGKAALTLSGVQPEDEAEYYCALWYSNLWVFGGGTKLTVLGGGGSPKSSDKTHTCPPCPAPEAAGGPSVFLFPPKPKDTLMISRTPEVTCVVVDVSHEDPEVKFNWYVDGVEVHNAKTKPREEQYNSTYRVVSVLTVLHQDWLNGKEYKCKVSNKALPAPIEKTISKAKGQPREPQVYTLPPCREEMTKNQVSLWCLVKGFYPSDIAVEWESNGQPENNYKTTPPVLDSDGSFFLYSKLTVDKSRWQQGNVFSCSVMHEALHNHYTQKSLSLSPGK
heavy: B1 heavy
light: B1 light
B5: Cross309×Trop2 (bispecific antibody)
scFv: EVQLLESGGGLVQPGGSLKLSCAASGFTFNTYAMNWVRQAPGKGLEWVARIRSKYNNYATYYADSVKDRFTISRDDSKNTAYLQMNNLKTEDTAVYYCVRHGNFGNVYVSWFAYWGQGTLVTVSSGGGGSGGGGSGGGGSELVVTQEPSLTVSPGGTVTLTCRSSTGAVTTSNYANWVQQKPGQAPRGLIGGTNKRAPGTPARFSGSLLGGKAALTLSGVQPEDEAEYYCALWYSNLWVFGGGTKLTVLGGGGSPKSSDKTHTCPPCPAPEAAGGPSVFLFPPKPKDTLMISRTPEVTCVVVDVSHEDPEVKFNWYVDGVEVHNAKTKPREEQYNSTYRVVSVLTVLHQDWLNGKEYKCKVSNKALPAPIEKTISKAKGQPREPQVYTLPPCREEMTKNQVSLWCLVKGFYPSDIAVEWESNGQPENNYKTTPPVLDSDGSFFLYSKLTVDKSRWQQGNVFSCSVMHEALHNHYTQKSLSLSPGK
heavy: B1 heavy
light: B1 light
B6: Cross326×Trop2 (bispecific antibody)
scFv: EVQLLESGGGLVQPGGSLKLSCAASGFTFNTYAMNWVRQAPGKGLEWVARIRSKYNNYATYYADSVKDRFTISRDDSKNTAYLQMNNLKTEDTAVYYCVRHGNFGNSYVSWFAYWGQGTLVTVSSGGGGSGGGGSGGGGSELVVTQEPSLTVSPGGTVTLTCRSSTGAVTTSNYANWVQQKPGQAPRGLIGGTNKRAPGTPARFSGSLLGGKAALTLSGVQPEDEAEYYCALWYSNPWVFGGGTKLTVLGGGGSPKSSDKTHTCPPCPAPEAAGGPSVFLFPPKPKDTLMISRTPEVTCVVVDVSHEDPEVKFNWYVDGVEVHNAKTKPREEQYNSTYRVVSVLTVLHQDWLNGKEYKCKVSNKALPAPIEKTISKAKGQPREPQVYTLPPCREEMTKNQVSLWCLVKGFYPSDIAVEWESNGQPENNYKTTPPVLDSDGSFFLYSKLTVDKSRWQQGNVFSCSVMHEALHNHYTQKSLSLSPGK
heavy: B1 heavy
light: B1 light
B7: Cross325×Trop2 (bispecific antibody)
scFv: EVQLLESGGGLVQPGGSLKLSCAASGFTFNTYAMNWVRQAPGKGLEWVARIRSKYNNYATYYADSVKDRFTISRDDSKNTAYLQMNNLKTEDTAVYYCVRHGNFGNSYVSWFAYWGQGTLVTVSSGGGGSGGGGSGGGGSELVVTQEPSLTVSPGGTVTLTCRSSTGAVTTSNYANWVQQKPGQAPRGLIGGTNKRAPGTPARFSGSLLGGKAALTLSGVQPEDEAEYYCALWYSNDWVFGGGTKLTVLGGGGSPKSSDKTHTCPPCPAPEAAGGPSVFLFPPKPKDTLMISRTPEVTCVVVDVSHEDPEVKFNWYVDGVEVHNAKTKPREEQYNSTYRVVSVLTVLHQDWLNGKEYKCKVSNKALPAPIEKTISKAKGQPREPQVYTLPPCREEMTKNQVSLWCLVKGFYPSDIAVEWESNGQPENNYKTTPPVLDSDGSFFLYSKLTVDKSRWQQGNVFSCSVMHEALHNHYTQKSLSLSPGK
heavy: B1 heavy
light: B1 light
B8: Cross316×Trop2 (bispecific antibody)
scFv: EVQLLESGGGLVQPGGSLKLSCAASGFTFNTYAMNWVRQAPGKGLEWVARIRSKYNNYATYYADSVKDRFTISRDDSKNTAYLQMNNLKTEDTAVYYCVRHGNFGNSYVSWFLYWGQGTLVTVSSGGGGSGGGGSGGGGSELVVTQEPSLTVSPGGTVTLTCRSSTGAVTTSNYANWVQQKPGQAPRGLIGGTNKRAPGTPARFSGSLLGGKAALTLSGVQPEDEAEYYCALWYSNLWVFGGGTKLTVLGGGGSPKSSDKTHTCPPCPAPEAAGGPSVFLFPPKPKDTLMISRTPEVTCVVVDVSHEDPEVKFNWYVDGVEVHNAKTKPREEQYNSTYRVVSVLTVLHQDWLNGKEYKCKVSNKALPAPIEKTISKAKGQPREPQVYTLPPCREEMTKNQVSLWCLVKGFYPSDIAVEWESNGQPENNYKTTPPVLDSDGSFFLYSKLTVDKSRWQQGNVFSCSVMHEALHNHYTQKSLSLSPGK
heavy: B1 heavy
light: B1 light
B9: Cross323×Trop2 (bispecific antibody)
scFv: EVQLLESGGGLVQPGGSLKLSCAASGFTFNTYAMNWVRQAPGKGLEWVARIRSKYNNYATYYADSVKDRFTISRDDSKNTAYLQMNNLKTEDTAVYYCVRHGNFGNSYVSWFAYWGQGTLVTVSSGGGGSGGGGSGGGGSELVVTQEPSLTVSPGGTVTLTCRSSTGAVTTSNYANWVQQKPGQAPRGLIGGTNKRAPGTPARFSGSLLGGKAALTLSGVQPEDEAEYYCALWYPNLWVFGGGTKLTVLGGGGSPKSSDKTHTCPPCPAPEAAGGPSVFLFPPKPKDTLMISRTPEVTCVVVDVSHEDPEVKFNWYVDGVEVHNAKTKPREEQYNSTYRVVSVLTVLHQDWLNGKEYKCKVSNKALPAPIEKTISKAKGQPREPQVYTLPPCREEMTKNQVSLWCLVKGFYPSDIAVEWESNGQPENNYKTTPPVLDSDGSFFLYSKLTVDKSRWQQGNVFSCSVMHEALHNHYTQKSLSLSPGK
heavy: B1 heavy
light: B1 light
B10: Cross318×Trop2 (bispecific antibody)
scFv: not shown
heavy: B1 heavy
light: B1 light
B11: Cross314×Trop2 (bispecific antibody)
scFv: not shown
heavy: B1 heavy
light: B1 light
B12: Cross303×PDL1 (bispecific antibody, human IgG1, kappa, L234A L235A)
scFv: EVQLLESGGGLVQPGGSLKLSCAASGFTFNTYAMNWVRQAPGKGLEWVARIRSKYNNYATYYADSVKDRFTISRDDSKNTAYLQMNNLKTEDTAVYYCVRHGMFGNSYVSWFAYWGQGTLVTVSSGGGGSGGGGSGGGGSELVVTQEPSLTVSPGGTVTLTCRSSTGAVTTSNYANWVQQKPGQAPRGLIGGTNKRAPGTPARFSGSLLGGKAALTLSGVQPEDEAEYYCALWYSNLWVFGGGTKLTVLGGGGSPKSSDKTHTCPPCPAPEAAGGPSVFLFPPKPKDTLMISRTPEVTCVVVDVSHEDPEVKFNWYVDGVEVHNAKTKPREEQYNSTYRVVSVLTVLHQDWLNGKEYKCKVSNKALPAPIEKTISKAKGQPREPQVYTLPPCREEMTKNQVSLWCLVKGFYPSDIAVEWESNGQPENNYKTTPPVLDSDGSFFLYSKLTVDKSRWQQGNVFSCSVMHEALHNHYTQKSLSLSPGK
heavy: QVQLVQSGAEVKKPGASVKVSCKASGYSFTGYYMHWVRQAPGQGLEWIGRINPYNGATTYSQNFKDRATMTVDTSISTAYMELSRLRSDDTAVYYCVPTGMGYFLMDYWGQGTLVTVSSASTKGPSVFPLAPSSKSTSGGTAALGCLVKDYFPEPVTVSWNSGALTSGVHTFPAVLQSSGLYSLSSVVTVPSSSLGTQTYICNVNHKPSNTKVDKKVEPKSCDKTHTCPPCPAPEAAGGPSVFLFPPKPKDTLMISRTPEVTCVVVDVSHEDPEVKFNWYVDGVEVHNAKTKPREEQYNSTYRVVSVLTVLHQDWLNGKEYKCKVSNKALPAPIEKTISKAKGQPREPQVCTLPPSREEMTKNQVSLSCAVKGFYPSDIAVEWESNGQPENNYKTTPPVLDSDGSFFLVSKLTVDKSRWQQGNVFSCSVMHEALHNHYTQKSLSLSPGK
light: DIQLTQSPSFLSASVGDRVTITCKASQDVGSAVVWYQQKPGKAPKLLIYWASTRHTGVPSRFSGSGSGTEFTLTISSLQPEDFATYFCQQFTSYPTFGQGTKLEIKRTVAAPSVFIFPPSDEQLKSGTASVVCLLNNFYPREAKVQWKVDNALQSGNSQESVTEQDSKDSTYSLSSTLTLSKADYEKHKVYACEVTHQGLSSPVTKSFNRGEC

Assays:
[1] = target: T1, Trop2 protein (UniProt P09758 27-274); test: ELISA, coated Trop2 protein, OD450
T1 construct: Bought recombinant protein; also called Trop2-Biotin protein (biotin-labelled, bridging ELISA)
T1 sequence (looked up): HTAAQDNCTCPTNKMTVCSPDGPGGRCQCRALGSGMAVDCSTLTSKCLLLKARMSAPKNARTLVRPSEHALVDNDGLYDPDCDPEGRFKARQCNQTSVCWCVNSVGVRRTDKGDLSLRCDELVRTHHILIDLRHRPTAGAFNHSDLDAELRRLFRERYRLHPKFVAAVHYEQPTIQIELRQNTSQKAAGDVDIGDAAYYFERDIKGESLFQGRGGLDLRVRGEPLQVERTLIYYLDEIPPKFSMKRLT
Text: In this example, the binding properties of the CD3×Trop2 and CD3×PDL1 bispecific antibody (the production method and the amino acid sequences of the heavy and light chains were shown in Example 1) were detected by using ELISA. The CD3E&D, Trop2, or PDL1 protein was coated onto 96-well plates by inventors, and the strength of the signal after the addition of the antibody was used to determine the binding properties of the antibody and the corresponding protein.
(2) Trop2 protein (purchased from Acro) was diluted to 2 μg/ml with PBS buffer, added to a 96-well plate at a volume of 100 μL/well, and placed at 4° C. overnight. The PBS buffer in the 96-well plate was aspirated, and the plate was washed 6 times with PBST (pH 7.2 PBS containing 0.1% Tween 20) buffer. Then, 200 μL/well PBS/10% BSA was added and incubated at 37° C. for 2 h for blocking. The blocking solution was removed, and the plate was washed six times with PBST. Then, the to-be-tested bispecific antibodies, Cross3×Trop2, Cross303×Trop2, Cross307×Trop2, Cross308×Trop2, Cross309×Trop2, Cross310×Trop2, Cross311×Trop2, Cross312×Trop2, Cross313×Trop2, Cross314×Trop2, Cross316×Trop2, Cross317×Trop2, Cross318×Trop2, Cross323×Trop2, Cross325×Trop2, Cross326×Trop2, and control IgG1LALA (purchased from Bio-Tech), serially diluted with PBST/0.05% BSA, were added at 100 μL/well and incubated at 37° C. for 1 h. The reaction system was removed, and the plate was washed 6 times with PBST. Then, HRP (horseradish peroxidase)-labeled anti-human secondary antibody (Fab specific) (purchased from Sigma) diluted with PBST/0.05% BSA at 100 μL/well. After the plate was washed six times with PBST, TMB (tetramethylbenzidine) was added at 80 μL/well, and incubated at room temperature for 3 min. 4 M sulfuric acid was added at 80 μL/well to terminate the reaction. The absorbance was read at 450 nm using a microplate reader.

[2] = target: T2, Trop2 on A-375-Trop2 melanoma cells (UniProt P09758 27-323, limits assumed); test: flow cytometry, A-375-Trop2 cells, MFI [panel B]
T2 construct: whole, on cells
T2 sequence (looked up): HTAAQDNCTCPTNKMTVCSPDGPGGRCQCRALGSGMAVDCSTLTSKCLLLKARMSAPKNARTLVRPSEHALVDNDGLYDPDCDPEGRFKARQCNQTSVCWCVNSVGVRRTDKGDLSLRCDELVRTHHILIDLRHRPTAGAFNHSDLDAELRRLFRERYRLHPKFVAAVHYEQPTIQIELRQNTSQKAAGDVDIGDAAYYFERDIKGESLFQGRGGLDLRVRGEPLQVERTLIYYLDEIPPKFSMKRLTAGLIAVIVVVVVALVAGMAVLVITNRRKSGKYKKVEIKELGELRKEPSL
Method: (§1) (2) The tumor cells were diluted to 2×10⁶/ml with PBS and added to a 1.5 ml EP tube at a volume of 100 μl/tube, and goat serum was added thereto at 10 μl/tube. The cells were blocked at 4° C. for 30 min. The serially diluted bispecific antibodies, Cross3×Trop2, Cross303×Trop2, Cross307×Trop2, Cross308×Trop2, Cross309×Trop2, Cross310×Trop2, Cross311×Trop2, Cross312×Trop2, Cross313×Trop2, Cross314×Trop2, Cross316×Trop2, Cross317×Trop2, Cross318×Trop2, Cross323×Trop2, Cross325×Trop2, Cross326×Trop2, and Cross3×PDL1, Cross303×PDL1, Cross307×PDL1, Cross308×PDL1, Cross309×PDL1, Cross310×PDL1, Cross311×PDL1, Cross312×PDL1, Cross313×PDL1, Cross314×PDL1, Cross316×PDL1, Cross317×PDL1, Cross318×PDL1, Cross323×PDL1, Cross325×PDL1, Cross326×PDL1, and control hIgG1LALA (purchased from Bio-Tech) were added and incubated at 4° C. for 30 min. 1 ml of PBS was added to the EP tube, followed by centrifugation at 3500 rpm for 5 min at 4° C. The supernatant was discarded, and the cells were washed again with PBS. After centrifugation, the supernatant was completely discarded, and the cells were resuspended with PBS at 100 μl/tube. Alexa-647-labeled goat anti-human IgG secondary antibody (purchased from Jackson lab) was added at 1 μl/tube and incubated at 4° C. in the dark for 30 min. The cells were washed twice with PBS, and the supernatant was completely discarded after centrifugation. The cells were resuspended with PBS at 200 μl/tube and assay was performed using the flow cytometry.

[3] = target: T3, PDL1 on A-375 melanoma cells, HCT-15 colorectal cancer cells and A549 lung cancer cells (UniProt Q9NZQ7 19-290, limits assumed); test: flow cytometry, A549 cells, MFI [panel B]
T3 construct: whole, on cells
Method: as §1

[4] = target: T4, PDL1 protein (UniProt Q9NZQ7 19-238); test: ELISA, coated PDL1 protein, OD450 [panel A]
T4 construct: Bought recombinant protein
Method: (3) PDL1 protein (purchased from Acro) was diluted to 2 μg/ml with PBS buffer, added to a 96-well plate at a volume of 100 μL/well, and placed at 4° C. overnight. The PBS buffer in the 96-well plate was aspirated, and the plate was washed 6 times with PBST (pH 7.2 PBS containing 0.10% Tween 20) buffer. Then, PBS/10% BSA was added at 200 μL/well and incubated at 37° C. for 2 h for blocking. The blocking solution was removed, and the plate was washed six times with PBST. Then, the to-be-tested bispecific antibodies serially diluted with PBST/0.05% BSA, Cross3×PDL1, Cross303×PDL1, Cross307×PDL1, Cross308×PDL1, Cross309×PDL1, Cross310×PDL1, Cross311×PDL1, Cross312×PDL1, Cross313×PDL1, Cross314×PDL1, Cross316×PDL1, Cross317×PDL1, Cross318×PDL1, Cross323×PDL1, Cross325×PDL1, Cross326×PDL1, and control IgG1LALA (purchased from Bio-Tech) were added at 100 μL/well, and incubated at 37° C. for 1 h. The reaction system was removed, and the plate was washed 6 times with PBST. Then, the cells were incubated at 37° C. for 1 h with HRP (horseradish peroxidase)-labeled anti-human secondary antibody (Fab specific) (purchased from Sigma) serially diluted with PBST/0.05% BSA at 100 μL/well. After the plate was washed six times with PBST, TMB (tetramethylbenzidine) was added at 80 μL/well and incubated at room temperature for 3 min. 4 M sulfuric acid was added at 80 μL/well to terminate the reaction. The absorbance was read at 450 nm using a microplate reader.

Row | Binder | EC50 (read off the curve) [1] [mg/L] | EC50 (read off the curve) [2] [mg/L] | EC50 (read off the curve) [3] [mg/L] | EC50 (read off the curve) [4] [mg/L]
1 | B1 | ~0.008 | ~1 |  | 
2 | B2 | ~0.008 | ~1 |  | 
3 | B3 | ~0.008 | ~1 |  | 
4 | B4 | ~0.008 | ~1 |  | 
5 | B5 | ~0.008 | ~1 |  | 
6 | B6 | ~0.008 | ~1 |  | 
7 | B7 | ~0.008 | ~1 |  | 
8 | B8 | ~0.008 | ~1 |  | 
9 | B9 | ~0.008 | ~1 |  | 
10 | B10 | ~0.02 | ~1 |  | 
11 | B11 | ~0.008 | ~1 |  | 
12 | B12 |  |  | ~1 | ~0.2
